Test results as given in patent WO2013157102A1 (dated 2013).

biological target: T1, mucin subtype 5AC expressed on BxPC3 cells (human, UniProt P98088 28-5654); experiment: flow cytometry on BxPC3 cells expressing mucin subtype 5AC, 20 ug/mL antibody, Alexa Fluor 488 anti-human IgG
T1 construct: whole, on cells; also called mucin 5AC; MUC5AC

binding result	Binder
binds	humanized antibody 1 (antibody, V domains shown, Expressed transiently in HEK293 cells and detected with anti-human IgG; also called VH-1 combined with VL-1; mucin subtype 5AC-specific humanized antibody) VH: QVQLVESGGGVVQPGRSLRLSCSSSGFIFSNYGMSWVRQAPEKRLEWVATISNSGRYTYFPDSVKGRFTISRDNSKNTLFLQMDSLRPEDTGVYFCARHLDYANYDAMDYWGQGTPVTVSS VL: DIVMTQSPNSLAVSLGERATINCRASKSVTTSDFSYMHWYQQKPGQPPKLLIYLASNLESGVPDRFSGSGSGTDFTLTISSLQAEDVAVYYCQHSREFPWTFGQGTKLEIK
binds	humanized antibody 2 (antibody, V domains shown, Detected with anti-human IgG; also called VH-4 combined with VL-5; mucin subtype 5AC-specific humanized antibody) VH: EVQLLESGGGLVQPGGSLRLSCAASGFTFSNYGMSWVRQAPGKGLEWVSTISNSGRYTYFPDSVKGRFTISRDNSKNTLYLQMNSLRAEDTAVYYCAKHLDYANYDAMDYWGQGTLVTVSS VL: DIVMTQTPLSSPVTLGQPASISCRASKSVTTSDFSYMHWLQQRPGQPPRLLIYLASNLESGVPDRFSGSGAGTDFTLKISRVEAEDVGVYYCQHSREFPWTFGQGTKVEIK
binds	humanized antibody 9 (antibody, V domains shown, Detected with anti-human IgG; also called VH-3 combined with VL-5; mucin subtype 5AC-specific humanized antibody) VH: QVQLQESGPGLVRPSQSLKLTCTVSGSTFSNYGMSWVRQTPEKRLEWIGTISNSGRYTYFPDSVKGRVTMLVDTSKNQFSLQMSSVTAADTAVYYCARHLDYANYDAMDYWGQGSLVTVSS VL: DIVMTQTPLSSPVTLGQPASISCRASKSVTTSDFSYMHWLQQRPGQPPRLLIYLASNLESGVPDRFSGSGAGTDFTLKISRVEAEDVGVYYCQHSREFPWTFGQGTKVEIK
binds	humanized antibody 4 (antibody, V domains shown, also called VH-4 combined with VL-3; mucin subtype 5AC-specific humanized antibody) VH: EVQLLESGGGLVQPGGSLRLSCAASGFTFSNYGMSWVRQAPGKGLEWVSTISNSGRYTYFPDSVKGRFTISRDNSKNTLYLQMNSLRAEDTAVYYCAKHLDYANYDAMDYWGQGTLVTVSS VL: DIQMTQSPSSLAVSLGDRVTITCRASKSVTTSDFSYMHWYQQKPGLAPKLLIYLASNLESGVPSRFSGSGSGTDFTFTISSLQPEDIATYYCQHSREFPWTFGQGTKVEVK
binds	humanized antibody 5 (antibody, V domains shown, Detected with anti-human IgG; also called VH-4 combined with VL-4; mucin subtype 5AC-specific humanized antibody) VH: EVQLLESGGGLVQPGGSLRLSCAASGFTFSNYGMSWVRQAPGKGLEWVSTISNSGRYTYFPDSVKGRFTISRDNSKNTLYLQMNSLRAEDTAVYYCAKHLDYANYDAMDYWGQGTLVTVSS VL: DIQMTQSPSSLAVSLGDRVTITCRASKSVTTSDFSYMHWYQQTPGKAPKLLIYLASNLESGVPSRFSGSGSGTDYTFTISSLQPEDIATYYCQHSREFPWTFGQGTKLQIT
binds	humanized antibody 10 (antibody, V domains shown, Detected with anti-human IgG; also called VH-4 combined with VL-7; mucin subtype 5AC-specific humanized antibody) VH: EVQLLESGGGLVQPGGSLRLSCAASGFTFSNYGMSWVRQAPGKGLEWVSTISNSGRYTYFPDSVKGRFTISRDNSKNTLYLQMNSLRAEDTAVYYCAKHLDYANYDAMDYWGQGTLVTVSS VL: DIVMTQTPLSLSVTPGQPASISCRASKSVTTSDFSYMHWYLQKPGQPPQLLIYLASNLESGVPDRFSGSGSGTDFTLKISRVEAEDVGVYYCQHSREFPWTFGQGTKVEIK
binds	humanized antibody 6 (antibody, V domains shown, Detected with anti-human IgG; also called VH-5 combined with VL-5; mucin subtype 5AC-specific humanized antibody) VH: EVQLVESGGGLVKPGGSLRLSCAASGFTFSNYGMSWVRQAPGKGLEWVSTISNSGRYTYFPDSVKGRFTISRDNAKNSLYLQMNSLRAEDTAVYYCARHLDYANYDAMDYWGQGTLVTVSS VL: DIVMTQTPLSSPVTLGQPASISCRASKSVTTSDFSYMHWLQQRPGQPPRLLIYLASNLESGVPDRFSGSGAGTDFTLKISRVEAEDVGVYYCQHSREFPWTFGQGTKVEIK
binds	humanized antibody 3 (antibody, V domains shown, Detected with anti-human IgG; also called VH-4 combined with VL-2; mucin subtype 5AC-specific humanized antibody) VH: EVQLLESGGGLVQPGGSLRLSCAASGFTFSNYGMSWVRQAPGKGLEWVSTISNSGRYTYFPDSVKGRFTISRDNSKNTLYLQMNSLRAEDTAVYYCAKHLDYANYDAMDYWGQGTLVTVSS VL: DIQMTQSPSTLAVSLGDRVTITCRASKSVTTSDFSYMHWYQQKPGKAPKLLMYLASNLESGVPSRFIGSGSGTEFTLTISSLQPDDFATYYCQHSREFPWTFGQGTKVEVK
binds	humanized antibody 7 (antibody, V domains shown, Detected with anti-human IgG; also called VH-6 combined with VL-5; mucin subtype 5AC-specific humanized antibody) VH: EVQLVESGGGVVRPGGSLRLSCAASGFTFDNYGMSWVRQAPGKGLEWVSTISNSGRYTYFPDSVKGRFTISRDNAKNSLYLQMNSLRAEDTALYHCARHLDYANYDAMDYWGQGTLVTVSS VL: DIVMTQTPLSSPVTLGQPASISCRASKSVTTSDFSYMHWLQQRPGQPPRLLIYLASNLESGVPDRFSGSGAGTDFTLKISRVEAEDVGVYYCQHSREFPWTFGQGTKVEIK

biological target: T1, mucin subtype 5AC expressed on BxPC3 …; experiment: flow cytometry on BxPC3 cells expressing mucin subtype 5AC, 20 ug/mL antibody, Alexa Fluor 488 anti-mouse IgG; mouse antibody is the positive reference

binding result	Binder
binds	mucin subtype 5AC-specific mouse antibody (antibody, V domains shown, Detected with anti-mouse IgG) VH: EVKLVESGGVLVKSGGSLKLSCAVSGFTFSNYGMSWVRQTPEKRLEWVATISNSGRYTYFPDSVKGRFAISRDNAKNNLYLQMSSLRSADTALYYCTRHLDYANYDAMDYWGQGTSVTVSS VL: DIVLTQSPASLAVSLGQRATISCRASKSVTTSDFSYMHWYQQKPGQPPKLLLYLASNLESGVPDRFSGSGSGTDFTLNIHPVEEEDAATYYCQHSREFPWTFGGGTKLEIK
